T1: human high affinity trimeric IL-2 receptor (CD25/CD122/CD132) (human, UniProt P01589 22-272; P14784 27-551; P31785 23-369)
T1 sequence 1: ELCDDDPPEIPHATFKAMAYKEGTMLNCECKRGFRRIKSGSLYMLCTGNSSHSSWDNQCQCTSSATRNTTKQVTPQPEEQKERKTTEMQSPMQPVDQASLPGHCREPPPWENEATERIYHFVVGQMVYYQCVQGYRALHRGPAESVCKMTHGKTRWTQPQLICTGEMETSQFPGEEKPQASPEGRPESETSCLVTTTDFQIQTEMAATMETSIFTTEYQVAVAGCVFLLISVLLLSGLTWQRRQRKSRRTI
T1 sequence 2: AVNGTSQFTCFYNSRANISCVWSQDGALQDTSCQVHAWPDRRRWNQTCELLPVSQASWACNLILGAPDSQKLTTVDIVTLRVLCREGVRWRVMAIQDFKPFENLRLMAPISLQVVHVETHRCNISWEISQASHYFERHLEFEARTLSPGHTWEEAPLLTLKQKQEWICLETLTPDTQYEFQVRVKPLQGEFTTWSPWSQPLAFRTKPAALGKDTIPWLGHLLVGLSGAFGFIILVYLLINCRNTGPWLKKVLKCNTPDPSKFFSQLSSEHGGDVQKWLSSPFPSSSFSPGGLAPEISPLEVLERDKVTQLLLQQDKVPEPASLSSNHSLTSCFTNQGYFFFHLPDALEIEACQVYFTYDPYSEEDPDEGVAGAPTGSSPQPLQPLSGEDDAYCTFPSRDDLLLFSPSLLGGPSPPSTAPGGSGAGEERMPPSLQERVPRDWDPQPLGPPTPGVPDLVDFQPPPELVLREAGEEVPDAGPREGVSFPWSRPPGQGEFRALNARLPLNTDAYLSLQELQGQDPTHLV
T1 sequence 3: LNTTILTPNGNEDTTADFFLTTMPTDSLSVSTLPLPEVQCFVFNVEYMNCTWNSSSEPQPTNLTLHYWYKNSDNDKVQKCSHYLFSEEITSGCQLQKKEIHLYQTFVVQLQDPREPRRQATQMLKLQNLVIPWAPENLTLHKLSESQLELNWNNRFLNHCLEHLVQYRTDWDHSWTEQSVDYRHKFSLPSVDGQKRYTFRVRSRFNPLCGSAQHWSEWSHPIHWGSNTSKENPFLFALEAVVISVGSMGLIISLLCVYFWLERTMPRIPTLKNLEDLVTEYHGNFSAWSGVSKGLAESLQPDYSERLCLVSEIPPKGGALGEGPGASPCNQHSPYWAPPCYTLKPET


The binders below were run against T1, human high affinity trimeric IL-2 … (assay: cell-based or functional assay).

Row | Binder | pSTAT5 ratio YT CD25/YT, dilution factor 2, lower table | pSTAT5 ratio YT CD25/YT, dilution factor 2, upper table | pSTAT5 ratio YT CD25/YT, dilution factor 4, lower table | pSTAT5 ratio YT CD25/YT, dilution factor 4, upper table | pSTAT5 ratio YT CD25/YT, dilution factor 8, lower table | pSTAT5 ratio YT CD25/YT, dilution factor 8, upper table | pSTAT5 ratio YT CD25/YT, dilution factor 16, lower table | pSTAT5 ratio YT CD25/YT, dilution factor 16, upper table | pSTAT5 ratio YT CD25/YT, dilution factor 32, lower table | pSTAT5 ratio YT CD25/YT, dilution factor 32, upper table
1 | HEH (ligand) cytokine: APTSSSTKKTQLQLEHLHLDLEMILNGINNYKNPKLTRMLTFKFYMPKKATELKHLQCLEEELKPLEEVLNLAQSKNFHLRPRDLISNINVIVLELKGSETTFMCEYADETATIVEFLNRWITFCHSIISTLT | 1 |  | 1.2 |  | 1.8 |  | 3.1 |  | 5.6 | 
2 | DEH (ligand) cytokine: APTSSSTKKTQLQLEHLDLDLEMILNGINNYKNPKLTRMLTFKFYMPKKATELKHLQCLEEELKPLEEVLNLAQSKNFHLRPRDLISNINVIVLELKGSETTFMCEYADETATIVEFLNRWITFCHSIISTLT | 0.9 |  | 2 |  | 4.2 |  | 7.5 |  | 8.2 | 
3 | IEH (ligand) cytokine: APTSSSTKKTQLQLEHLILDLEMILNGINNYKNPKLTRMLTFKFYMPKKATELKHLQCLEEELKPLEEVLNLAQSKNFHLRPRDLISNINVIVLELKGSETTFMCEYADETATIVEFLNRWITFCHSIISTLT |  | 1.2 |  | 1.4 |  | 1.6 |  | 2.6 |  | 4.6
4 | EEH (ligand) cytokine: APTSSSTKKTQLQLEHLELDLEMILNGINNYKNPKLTRMLTFKFYMPKKATELKHLQCLEEELKPLEEVLNLAQSKNFHLRPRDLISNINVIVLELKGSETTFMCEYADETATIVEFLNRWITFCHSIISTLT |  | 1.4 |  | 2.3 |  | 4.8 |  | 8.4 |  | 14.7
5 | FEH (ligand) cytokine: APTSSSTKKTQLQLEHLFLDLEMILNGINNYKNPKLTRMLTFKFYMPKKATELKHLQCLEEELKPLEEVLNLAQSKNFHLRPRDLISNINVIVLELKGSETTFMCEYADETATIVEFLNRWITFCHSIISTLT |  | 0.9 |  | 1.2 |  | 1.3 |  | 1.4 |  | 1.7

Further lines, results first:

Row | pSTAT5 ratio YT CD25/YT, dilution factor 2, lower table | pSTAT5 ratio YT CD25/YT, dilution factor 2, upper table | pSTAT5 ratio YT CD25/YT, dilution factor 4, lower table | pSTAT5 ratio YT CD25/YT, dilution factor 4, upper table | pSTAT5 ratio YT CD25/YT, dilution factor 8, lower table | pSTAT5 ratio YT CD25/YT, dilution factor 8, upper table | pSTAT5 ratio YT CD25/YT, dilution factor 16, lower table | pSTAT5 ratio YT CD25/YT, dilution factor 16, upper table | pSTAT5 ratio YT CD25/YT, dilution factor 32, lower table | pSTAT5 ratio YT CD25/YT, dilution factor 32, upper table | Binder
6 | 0.8 | 0.9 | 0.9 | 1 | 1 | 1.1 | 1.3 | 1.3 | 1.6 | 1.8 | hIL2 mutein REH (L18R, Q22E, Q126H) (ligand) APTSSSTKKTQLQLEHLRLDLEMILNGINNYKNPKLTRMLTFKFYMPKKATELKHLQCLEEELKPLEEVLNLAQSKNFHLRPRDLISNINVIVLELKGSETTFMCEYADETATIVEFLNRWITFCHSIISTLT
7 |  | 1.1 |  | 1.4 |  | 1.5 |  | 2.2 |  | 3.9 | WEH (ligand) cytokine: APTSSSTKKTQLQLEHLWLDLEMILNGINNYKNPKLTRMLTFKFYMPKKATELKHLQCLEEELKPLEEVLNLAQSKNFHLRPRDLISNINVIVLELKGSETTFMCEYADETATIVEFLNRWITFCHSIISTLT
8 | 0.9 |  | 1.1 |  | 1.8 |  | 2.6 |  | 5.1 |  | NEH (ligand) cytokine: APTSSSTKKTQLQLEHLNLDLEMILNGINNYKNPKLTRMLTFKFYMPKKATELKHLQCLEEELKPLEEVLNLAQSKNFHLRPRDLISNINVIVLELKGSETTFMCEYADETATIVEFLNRWITFCHSIISTLT
9 |  | 1.1 |  | 1 |  | 1.1 |  | 1.4 |  | 1.6 | KEH (ligand) cytokine: APTSSSTKKTQLQLEHLKLDLEMILNGINNYKNPKLTRMLTFKFYMPKKATELKHLQCLEEELKPLEEVLNLAQSKNFHLRPRDLISNINVIVLELKGSETTFMCEYADETATIVEFLNRWITFCHSIISTLT
10 |  | 1.1 |  | 1.3 |  | 1.8 |  | 3.1 |  | 5.8 | QEH (ligand) cytokine: APTSSSTKKTQLQLEHLQLDLEMILNGINNYKNPKLTRMLTFKFYMPKKATELKHLQCLEEELKPLEEVLNLAQSKNFHLRPRDLISNINVIVLELKGSETTFMCEYADETATIVEFLNRWITFCHSIISTLT
11 | 0.8 |  | 0.9 |  | 1 |  | 1.2 |  | 1.5 |  | YEH (ligand) cytokine: APTSSSTKKTQLQLEHLYLDLEMILNGINNYKNPKLTRMLTFKFYMPKKATELKHLQCLEEELKPLEEVLNLAQSKNFHLRPRDLISNINVIVLELKGSETTFMCEYADETATIVEFLNRWITFCHSIISTLT
12 |  | 1.2 |  | 1.6 |  | 2.4 |  | 3.6 |  | 6.3 | VEH (ligand) cytokine: APTSSSTKKTQLQLEHLVLDLEMILNGINNYKNPKLTRMLTFKFYMPKKATELKHLQCLEEELKPLEEVLNLAQSKNFHLRPRDLISNINVIVLELKGSETTFMCEYADETATIVEFLNRWITFCHSIISTLT
13 |  | 1.2 |  | 1.5 |  | 2.5 |  | 4 |  | 7.8 | SEH (ligand) cytokine: APTSSSTKKTQLQLEHLSLDLEMILNGINNYKNPKLTRMLTFKFYMPKKATELKHLQCLEEELKPLEEVLNLAQSKNFHLRPRDLISNINVIVLELKGSETTFMCEYADETATIVEFLNRWITFCHSIISTLT

Same assay, conditions: not given

Row | Binder | pSTAT5 ratio YT CD25/YT, dilution factor 64, lower table | pSTAT5 ratio YT CD25/YT, dilution factor 64, upper table | pSTAT5 ratio YT CD25/YT, dilution factor 128, lower table | pSTAT5 ratio YT CD25/YT, dilution factor 128, upper table
14 | HEH (ligand) cytokine: APTSSSTKKTQLQLEHLHLDLEMILNGINNYKNPKLTRMLTFKFYMPKKATELKHLQCLEEELKPLEEVLNLAQSKNFHLRPRDLISNINVIVLELKGSETTFMCEYADETATIVEFLNRWITFCHSIISTLT | 8.3 |  | 11.8 | 
15 | DEH (ligand) cytokine: APTSSSTKKTQLQLEHLDLDLEMILNGINNYKNPKLTRMLTFKFYMPKKATELKHLQCLEEELKPLEEVLNLAQSKNFHLRPRDLISNINVIVLELKGSETTFMCEYADETATIVEFLNRWITFCHSIISTLT | 10.6 |  | 9.9 | 
16 | IEH (ligand) cytokine: APTSSSTKKTQLQLEHLILDLEMILNGINNYKNPKLTRMLTFKFYMPKKATELKHLQCLEEELKPLEEVLNLAQSKNFHLRPRDLISNINVIVLELKGSETTFMCEYADETATIVEFLNRWITFCHSIISTLT |  | 7.2 |  | 10.9
17 | EEH (ligand) cytokine: APTSSSTKKTQLQLEHLELDLEMILNGINNYKNPKLTRMLTFKFYMPKKATELKHLQCLEEELKPLEEVLNLAQSKNFHLRPRDLISNINVIVLELKGSETTFMCEYADETATIVEFLNRWITFCHSIISTLT |  | 16.9 |  | 17
18 | FEH (ligand) cytokine: APTSSSTKKTQLQLEHLFLDLEMILNGINNYKNPKLTRMLTFKFYMPKKATELKHLQCLEEELKPLEEVLNLAQSKNFHLRPRDLISNINVIVLELKGSETTFMCEYADETATIVEFLNRWITFCHSIISTLT |  | 2.9 |  | 4.7

Results, then the binder that gave them:

Row | pSTAT5 ratio YT CD25/YT, dilution factor 64, lower table | pSTAT5 ratio YT CD25/YT, dilution factor 64, upper table | pSTAT5 ratio YT CD25/YT, dilution factor 128, lower table | pSTAT5 ratio YT CD25/YT, dilution factor 128, upper table | Binder
19 | 2.4 | 2.9 | 3.9 | 4.7 | hIL2 mutein REH (L18R, Q22E, Q126H) (ligand) APTSSSTKKTQLQLEHLRLDLEMILNGINNYKNPKLTRMLTFKFYMPKKATELKHLQCLEEELKPLEEVLNLAQSKNFHLRPRDLISNINVIVLELKGSETTFMCEYADETATIVEFLNRWITFCHSIISTLT
20 |  | 6.4 |  | 10 | WEH (ligand) cytokine: APTSSSTKKTQLQLEHLWLDLEMILNGINNYKNPKLTRMLTFKFYMPKKATELKHLQCLEEELKPLEEVLNLAQSKNFHLRPRDLISNINVIVLELKGSETTFMCEYADETATIVEFLNRWITFCHSIISTLT
21 | 7.9 |  | 11.9 |  | NEH (ligand) cytokine: APTSSSTKKTQLQLEHLNLDLEMILNGINNYKNPKLTRMLTFKFYMPKKATELKHLQCLEEELKPLEEVLNLAQSKNFHLRPRDLISNINVIVLELKGSETTFMCEYADETATIVEFLNRWITFCHSIISTLT
22 |  | 2.3 |  | 4 | KEH (ligand) cytokine: APTSSSTKKTQLQLEHLKLDLEMILNGINNYKNPKLTRMLTFKFYMPKKATELKHLQCLEEELKPLEEVLNLAQSKNFHLRPRDLISNINVIVLELKGSETTFMCEYADETATIVEFLNRWITFCHSIISTLT
23 |  | 8.3 |  | 11.7 | QEH (ligand) cytokine: APTSSSTKKTQLQLEHLQLDLEMILNGINNYKNPKLTRMLTFKFYMPKKATELKHLQCLEEELKPLEEVLNLAQSKNFHLRPRDLISNINVIVLELKGSETTFMCEYADETATIVEFLNRWITFCHSIISTLT
24 | 2 |  | 3.4 |  | YEH (ligand) cytokine: APTSSSTKKTQLQLEHLYLDLEMILNGINNYKNPKLTRMLTFKFYMPKKATELKHLQCLEEELKPLEEVLNLAQSKNFHLRPRDLISNINVIVLELKGSETTFMCEYADETATIVEFLNRWITFCHSIISTLT
25 |  | 10.9 |  | 14.8 | VEH (ligand) cytokine: APTSSSTKKTQLQLEHLVLDLEMILNGINNYKNPKLTRMLTFKFYMPKKATELKHLQCLEEELKPLEEVLNLAQSKNFHLRPRDLISNINVIVLELKGSETTFMCEYADETATIVEFLNRWITFCHSIISTLT
26 |  | 11.4 |  | 15.1 | SEH (ligand) cytokine: APTSSSTKKTQLQLEHLSLDLEMILNGINNYKNPKLTRMLTFKFYMPKKATELKHLQCLEEELKPLEEVLNLAQSKNFHLRPRDLISNINVIVLELKGSETTFMCEYADETATIVEFLNRWITFCHSIISTLT

— patent US20210275641A1 (SYNTHEKINE, published 2021)
